{"source": "the supplement of paper PMC12636428", "data": [{"tested_on": "Saccharomyces cerevisiae", "experiment": "transcriptional activation domain activity (GFP:mCherry ratio, weighted mean of sorted bins, harmonized to initial dataset scale) (arbitrary fluorescence ratio units); higher = stronger transcriptional activation", "conditions": "beta-estradiol 1 µM; induction time 4 h", "outline": "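Yeast diploids with a GFP reporter received barcoded protein tiles, fused to an estradiol-inducible synthetic transcription factor, at the URA3 locus. Cultures were diluted 1:5 into SC holding 1 uM beta-estradiol, incubated 4 hours at 30 °C, sorted into 8 bins on GFP:mCherry ratio, and sequenced for barcodes, with tiles under 50 reads discarded. Activation activity values come from the read-weighted mean of bin median fluorescence, averaged across barcodes and linearly placed on the initial dataset scale.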", "values": [{"sequence": "EADGEVKTKSKKSKKQKGDAADSAEADDAKSAVPEGTDATKKKKKRKTQEPSD", "transcriptional activation domain activity": 30600}, {"sequence": "EIGALMLLSKTLEDNPNRLGSLVRILTLKCFIPQSYFKLMVRRLNILFSCCSR", "transcriptional activation domain activity": 64300}, {"sequence": "SVYCLLLILFIPYPFSDVFAKCKHASLEGLACGDFPHNQLSIYLAAILCLLIA", "transcriptional activation domain activity": 49800}, {"sequence": "MVCFQITFLYSAFFPLFSFSFLLNIFPTISIFPHLLQILAAFFVLFYAFFSTM", "transcriptional activation domain activity": 55100}, {"sequence": "IMTLFYSAQRHLNKLILATKIAAGVWPPPDAMAQLRFQIGQLLIFMQTFVSQC", "transcriptional activation domain activity": 67400}, {"sequence": "MISPIFPRNLIIHNITFSMLFSFFSFLFYTLYALFNFPVPFFLSSILTPLNIF", "transcriptional activation domain activity": 71200}, {"sequence": "TPEFHGQADVDTGILTLKKDEDIRDHPDAARFAEESKAARITKRGAREGLEHV", "transcriptional activation domain activity": 22000}, {"sequence": "ADSARGGDADAKYRDRDRQRQTETETDRQTKTERDTQRQRQRHRHTHTHSPVQ", "transcriptional activation domain activity": 37200}, {"sequence": "FFELLGLFVFFVLFLVGAAIASTFWGDLFWCHSFWQCRVLTVLVAFAWMCWVL", "transcriptional activation domain activity": 46900}, {"sequence": "KSGRGGGRKGGRGGGKASARGGAGGARGGGGGGRGGGGAHTERGRTGKGAGAS", "transcriptional activation domain activity": 21800}, {"sequence": "LLFFFFLFLSFSSLLHVWGLCLPISSFVGLWSLYLLFSPIPIVLPRVKLLFLA", "transcriptional activation domain activity": 60200}, {"sequence": "SSGGGSTSESESESESEIEEDESKGEREGEGEKEKKKKKKKKGEEKAQHARRD", "transcriptional activation domain activity": 31700}, {"sequence": "ADSDRHKKHKSSSSSSKSRHHDRDDDRDDNDKHSRRSHHKSSSSRHDRDRERG", "transcriptional activation domain activity": 46300}, {"sequence": "MPRHLYLIYILYILMTWGLYLILLQVIFIITMLMIFIYPFSIYLFKFQHIRSL", "transcriptional activation domain activity": 49500}, {"sequence": "MNGGNGFGFWFGVWFWLGIYILSLFFFFFSFSFLLLCVFVSFHSLVFFFFFFS", "transcriptional activation domain activity": 53300}, {"sequence": "MQDGEHEQRLNGRKLALEAENYIIISTRLQKPCIGVVQVLLLLIIMRTISASD", "transcriptional activation domain activity": 79600}, {"sequence": "GAVARAAHAAAPAGVRAAAPAPAGVHALAPAGAHALVHAPARAGPARALVLAG", "transcriptional activation domain activity": 48800}, {"sequence": "PWLLLIRYLALGTNLSMVVLTFGIFGLQWNRWISILTLRVYTMFNRKRVILWL", "transcriptional activation domain activity": 61100}, {"sequence": "MREKDNDETTTGIFFLFLFLDKILLLFAWYLPWSSSQFLRLLFSLVLFWAVTL", "transcriptional activation domain activity": 45300}, {"sequence": "SMLSYHLWMVMHAETSVESQDFHIYRKVAKRRGETFTNSYDLGKIRNLELFFN", "transcriptional activation domain activity": 61200}, {"sequence": "EAYPEPEEEPTMEPIDLSDDALLQVSYRLQKQNLSSSIVLLLTNRCLFISKPY", "transcriptional activation domain activity": 49400}, {"sequence": "QFSWNVCFMVFLFLFLFLFLCFVCFTLLCLSKMLHNVLHYNFILCFLSSFCFV", "transcriptional activation domain activity": 52400}, {"sequence": "EVSFVALLLVWTYMRHYLNCKILYSVWTEFDLIPHHFRSWVHEPGYPHDIRGW", "transcriptional activation domain activity": 45000}, {"sequence": "SNKRNKDENRGRSRTRSASRGRSRSASVFSDARSRSRARSRSRAATMAKAGAA", "transcriptional activation domain activity": 36300}, {"sequence": "MNDCSAGCAGGQFPVGQDGLICIVEFNTITCVSTGSIVFLMLHSWLYFVLLIF", "transcriptional activation domain activity": 71600}, {"sequence": "KKGRRKENGEGGEEKGKGAGGRGEGEEAGRRSRIKGVGGKRRGAGRRRGRREG", "transcriptional activation domain activity": 17100}, {"sequence": "ELPKKCDDKYWEHGDNYQEAIRQLPTKPSLVEFFNCLITLNRILALTLRMLYS", "transcriptional activation domain activity": 55200}, {"sequence": "SLQEIDKMRVDGKFVDSEGIGRRPICVSSSILKQVLLYLLRRCYGLIYRLLSS", "transcriptional activation domain activity": 33800}, {"sequence": "KGGRKCKKGRAGEEAGMPARRRKGGERGGRGGKTGARGGEEGGGGEGGAARNG", "transcriptional activation domain activity": 34800}, {"sequence": "AEGADAEGEGEEGEKEQEQEKQDGEKDGSEKETGNGQDGKKSEASLSVLNRLL", "transcriptional activation domain activity": 29400}, {"sequence": "TSTAPHRGFGFVEFEHPEDAKAAQDNMHLSELYGKTIKVNLARPLKGAGPGGR", "transcriptional activation domain activity": 57100}, {"sequence": "MVYMSSVNVWGLDIYYSRVSIYLFFFPSLFFLWAASMSLFPYYFLPSLFYIVL", "transcriptional activation domain activity": 26500}, {"sequence": "MPWGGWGYIFDVTRPFFFCFISCLFLFYICLLGFLVGFFCFSFFFDLFIFFMT", "transcriptional activation domain activity": 24600}, {"sequence": "TVGPVDNNYRDLEAYLETRYLRYCDPSKSLHLMATLMVRCAINILRFMARHPR", "transcriptional activation domain activity": 54100}, {"sequence": "MHAFQAGRDMPLVRRRSGGCLESDGGGEERVLRCETEECMSKEGVVSVGAGAD", "transcriptional activation domain activity": 35500}, {"sequence": "LRALCFEAIRNKGQSVMIARLLQRYMGQLTWLRGGNGVSLLVMVVRDVLLEMQ", "transcriptional activation domain activity": 58900}, {"sequence": "IARSRNLPLDVVMYLGSDEENDMMVDTLLLLHDYISKVRSLILRVNFMTLSCA", "transcriptional activation domain activity": 66700}, {"sequence": "GHFVRVGTTFFTMYAVNIFLSYARYIAAHFRISVIVISRLMLNLRNPVTFEST", "transcriptional activation domain activity": 60400}, {"sequence": "NTDTYILFLFPFFWASNWFYTYQQNCYQLFYFNLRGRTFTNLWYWLAQIFGAL", "transcriptional activation domain activity": 72900}, {"sequence": "DAFADGDGDATVTEGETSEKPKKARKKRAKKDTGEDDAEAKPKKKAKRKAKAA", "transcriptional activation domain activity": 14500}, {"sequence": "DYTNWLGRNIVAWASKEPSTDDVKLCSGLLVKGLRLGHSDALVKLLVSMLFLT", "transcriptional activation domain activity": 49000}, {"sequence": "ARVIRCNRSAELHVVNRLREVCEDQELRADSTALTSLVRTCRSDLRACINALQ", "transcriptional activation domain activity": 59300}, {"sequence": "MRAAMDICVLIKMPCPLLKHTPFFTCAVTMAAVVYLSYWSFIATETGDDVIRE", "transcriptional activation domain activity": 46700}, {"sequence": "MSSTPNCARQQPNRSESARNRTKDNCAACREKRLKCDKDGGRKTCSSDSQPSS", "transcriptional activation domain activity": 37400}, {"sequence": "MAAIDHDKVAKFVGGNSLDKATPGDVTDFVRKNGGHTVITKVLIANNGIAAVK", "transcriptional activation domain activity": 45000}, {"sequence": "MVWGCAFFISSQFLFPWLLWVFPLSLLSLGLSHTLELDSVFSLLLIFFTIPLF", "transcriptional activation domain activity": 34500}, {"sequence": "AYANDKESTREKFILVVWIGPQCKVMRKAKVSVHAADVKTTLRVYSIEVAARE", "transcriptional activation domain activity": 35700}, {"sequence": "QAAQESDEESEAPNPTAKTLSKRAAEAWKQLSASDKDKYKVLADKEREEHARL", "transcriptional activation domain activity": 28800}, {"sequence": "PKCSSLRKPTNTLQGTNHAYHEHILNTDMDLKILEDLCNISSLYEVPFGKHIN", "transcriptional activation domain activity": 115000}, {"sequence": "ITMQQIQRDSDKYLCIQGVFELFRSPLYTVLTLDKSVLGPTVLVRLLTVLAER", "transcriptional activation domain activity": 39400}, {"sequence": "FYGDISLSRRGFLIASMFILRLFRAISYLAFNAILVDMPTRQAILRFFHYFGR", "transcriptional activation domain activity": 50200}, {"sequence": "MRLFRECALFDTFMLYLNGDCMWVCLCLCFYLDFTVLGWFIIYGLVYCRVDDR", "transcriptional activation domain activity": 56000}, {"sequence": "GWKGRGKSGGRGRKTSGGGLKTERKSGGVSKASGGGGSSSRGGRGAGAGAGAG", "transcriptional activation domain activity": 14100}, {"sequence": "SLDALHIIFVAHSLYWYLVLNYITPLALLSIVWSFHLQIAINIMLIASVQTAY", "transcriptional activation domain activity": 37300}, {"sequence": "NGEDAAPAAEPAGTSTADAVGGTTALPAAYRLKAFISHKGPSVHSGHYVVHIR", "transcriptional activation domain activity": 52700}]}]}
